Laboratory results from patent publication US20250283871A1, “COMPOSITIONS AND METHODS FOR MODULATING THE INTERACTION BETWEEN SS18-SSX FUSION ONCOPROTEIN AND NUCLEOSOMES” (Dana-Farber Cancer Institute, Inc., priority 2020, published 2025).

Tests used:
[1] = target: UCRIL HUMAN Putative cytochrome b-c1 complex subunit Rieske-like protein 1 (human) (UniProt P0C7P4); assay: anti-SMARCA4 (BRG1) IP, mass spectrometry, Aska-SS cells
[2] = target: UBP2L_HUMAN Isoform 5 of Ubiquitin-associated protein 2-like (human) (UniProt Q14157); assay: as above
[3] = target: XRN2_HUMAN 5'-3' exoribonuclease 2 (human) (UniProt Q9H0D6); assay: as above
[4] = target: ZN326_HUMAN DBIRD complex subunit ZNF326 (human) (UniProt Q5BKZ1); assay: as above
[5] = target: YLPM1_HUMAN Isoform 4 of YLP motif-containing protein 1 (human) (UniProt P49750); assay: as above
[6] = target: UBC_HUMAN Polyubiquitin-C (human) (UniProt P0CG48); assay: as above
[7] = target: VIME_HUMAN Vimentin (human) (UniProt P08670); assay: as above
[8] = target: QCR2_HUMAN Cytochrome b-c1 complex subunit 2, mitochondrial (human) (UniProt P22695); assay: as above
[9] = target: URB2_HUMAN Unhealthy ribosome biogenesis protein 2 homolog (human) (UniProt Q14146); assay: as above
[10] = target: ZC11A_HUMAN Zinc finger CCCH domain-containing protein 11A (human) (UniProt O75152); assay: as above
[11] = target: TNR6B_HUMAN Trinucleotide repeat-containing gene 6B protein (human) (UniProt Q9UPQ9); assay: as above
[12] = target: TRA2B_HUMAN Transformer-2 protein homolog beta (human) (UniProt P62995); assay: as above
[13] = target: TSP1_HUMAN Thrombospondin-1 (human) (UniProt P07996); assay: as above
[14] = target: SSX1; SSX8 (human) (UniProt Q16384); assay: MS of BAF complexes from Aska-SS cells, shControl against shSS18-SSX, Rep 2
[15] = target: SMRD1_HUMAN SWI/SNF-related matrix-associated actin-dependent regulator of chromatin subfamily D member 1 (human) (UniProt Q96GM5); assay: as above
[16] = target: SMRC1_HUMAN SWI/SNF complex subunit SMARCC1 (human) (UniProt Q92922); assay: as above
[17] = target: ACL6A_HUMAN Actin-like protein 6A (human) (UniProt O96019); assay: as above
[18] = target: SNF5_HUMAN Isoform B of SWI/SNF-related matrix-associated actin-dependent regulator of chromatin subfamily B member 1 (human) (UniProt Q12824); assay: as above
[19] = target: UCRIL HUMAN Putative cytochrome b-c1 complex subunit Rieske-like protein 1 (human) (UniProt P0C7P4); assay: anti-SMARCA4 (BRG1) IP, mass spectrometry, HEK-293T cells
[20] = target: UBP2L_HUMAN Isoform 5 of Ubiquitin-associated protein 2-like (human) (UniProt Q14157); assay: as above
[21] = target: XRN2_HUMAN 5'-3' exoribonuclease 2 (human) (UniProt Q9H0D6); assay: as above
[22] = target: ZN326_HUMAN DBIRD complex subunit ZNF326 (human) (UniProt Q5BKZ1); assay: as above
[23] = target: YLPM1_HUMAN Isoform 4 of YLP motif-containing protein 1 (human) (UniProt P49750); assay: as above
[24] = target: UBC_HUMAN Polyubiquitin-C (human) (UniProt P0CG48); assay: as above
[25] = target: VIME_HUMAN Vimentin (human) (UniProt P08670); assay: as above
[26] = target: QCR2_HUMAN Cytochrome b-c1 complex subunit 2, mitochondrial (human) (UniProt P22695); assay: as above
[27] = target: URB2_HUMAN Unhealthy ribosome biogenesis protein 2 homolog (human) (UniProt Q14146); assay: as above
[28] = target: ZC11A_HUMAN Zinc finger CCCH domain-containing protein 11A (human) (UniProt O75152); assay: as above
[29] = target: TNR6B_HUMAN Trinucleotide repeat-containing gene 6B protein (human) (UniProt Q9UPQ9); assay: as above
[30] = target: TRA2B_HUMAN Transformer-2 protein homolog beta (human) (UniProt P62995); assay: as above
[31] = target: TSP1_HUMAN Thrombospondin-1 (human) (UniProt P07996); assay: as above

Substance “SMCA4_HUMAN Transcription activator BRG1 (from UniProt P51532 1-1647) (enzyme)” has an NSAF [1] of 0, an NSAF [2] of 0 and an NSAF [3] of 0. The NSAF [4] was 0, the NSAF [5] was 0 and the NSAF [6] was 0. The NSAF [7] was 0, the NSAF [8] was 0 and the NSAF [9] was 0. It also gave an NSAF [10] of 0, an NSAF [11] of 0 and an NSAF [12] of 0. For the same substance, the NSAF [13] was 0, the LFQ intensity ratio Aska (shControl)/Aska (shSS18-SSX), norm to SMARCA4 [14] was 66.8 and the LFQ intensity ratio Aska (shControl)/Aska (shSS18-SSX), norm to SMARCA4 [15] was 0.95. For the same substance, the LFQ intensity ratio Aska (shControl)/Aska (shSS18-SSX), norm to SMARCA4 [16] was 0.622, the LFQ intensity ratio Aska (shControl)/Aska (shSS18-SSX), norm to SMARCA4 [17] was 1.1 and the LFQ intensity ratio Aska (shControl)/Aska (shSS18-SSX), norm to SMARCA4 [18] was 0.0637. For the same substance, the NSAF [19] was 0, the NSAF [20] was 5.64e-05 and the NSAF [21] was 6.55e-05. It also gave an NSAF [22] of 0.000749, an NSAF [23] of 0.000116 and an NSAF [24] of 9.09e-05. For the same substance, the NSAF [25] was 0, the NSAF [26] was 0 and the NSAF [27] was 4.08e-05. For the same substance, the NSAF [28] was 7.68e-05, the NSAF [29] was 3.4e-05 and the NSAF [30] was 0. For the same substance, the NSAF [31] was 0.
